Reference: publication PMC6874086
Like-named read-outs stand apart in the source and are kept apart here.

Assays:
VPS4A/B [1] = target: VPS4A/B (UniProt Q9UN37); settings: parent: est. 100; read off a plot
VPS4A/B [2] = target: VPS4A/B (UniProt Q9UN37); settings: parent: est. 100; read off a plot; remark: listed apart in the source

Chain of UniProt Q9UN37 (Q9UN37 whole entry): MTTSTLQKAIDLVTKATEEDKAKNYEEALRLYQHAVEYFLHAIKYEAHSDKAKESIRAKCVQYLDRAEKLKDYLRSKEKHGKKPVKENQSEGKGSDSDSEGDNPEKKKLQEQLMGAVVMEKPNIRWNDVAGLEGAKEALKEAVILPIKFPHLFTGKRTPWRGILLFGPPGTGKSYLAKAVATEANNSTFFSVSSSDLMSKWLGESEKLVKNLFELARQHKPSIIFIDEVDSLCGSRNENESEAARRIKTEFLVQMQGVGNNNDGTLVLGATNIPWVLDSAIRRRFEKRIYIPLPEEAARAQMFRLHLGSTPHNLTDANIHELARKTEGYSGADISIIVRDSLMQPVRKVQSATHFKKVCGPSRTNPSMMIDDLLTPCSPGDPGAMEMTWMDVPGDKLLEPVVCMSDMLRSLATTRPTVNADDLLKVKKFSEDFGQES

Question: Which percent of parent (VPS4A/B [1]) does the source give for “LCMV Z WT with a C-terminal streptavidin binding peptide (SBP) tag (from UniProt P18541) K5R; K10R; K33R; K38R; K69R; K77R” here?
Answer: 24 % of WT

Question: What about the percent of parent (VPS4A/B [2]) of the same substance?
Answer: 23 % of WT
